Results as given in the supplement of paper PMC7877785.
± gives the uncertainty stated by the source.

Assay: self-splicing fitness, log relative to wild type (ln ratio); higher = more splicing; Tetrahymena group I intron in knt gene, E. coli kanamycin selection, DiMSum; sequences stand for … in CUCUCU…GGAGGGAAAAGUUAUCAGGCAUGCACCUGGUAGCUAGUCUUUAAACCAAUAGAUUGCAUCGGUUUAAAAGGCAAGACCGUCAAAUUGCGGGAAAGGGGUCAACAGCCGUUCAGUACCAAGUCUCAGGGGAAACUUUGAGAUGGCCUUGCAAAGGGUAUGGUAAUAAGCUGACGGACAUGGUCCUAACCACGCAGCCAAGUCCUAAGUCAACAGAUCUUCUGUUGAUAUGGAUGCAGUUCACAGACUAAAUGUCGGUCGGGGAAGAUGUAUUCUUCUCAUAAGAUAUAGUCGGACCUCUCCUUAAUGGGAGCUAGCGGAUGAAGUGAUGCAACACUGGAGCCGCUGGGAACUAAUUUGUAUGCGAAAGUAUAUUGAUUAGUUUUGGAGUACUCGUGGUCG
How it was run: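 DiMSum derived fitness as the error-weighted combination of fold changes across replicates, kanamycin versus no kanamycin, normalised to wild type. E. coli BL21(DE3) held the library, which randomised all eight P1ex-region intron nucleotides within the knt kanamycin-resistance gene on pET-22b(+). Six replicate transformations grew overnight at 37°C or 30°C on LB agar with or without 25 μg/mL kanamycin, also containing 100 μg/mL carbenicillin, 50 μM IPTG and 0.2% rhamnose, and pooled colonies were amplicon-sequenced on an Illumina HiSeq 2500.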

Sequence	self-splicing fitness (ln) (30 °C)	self-splicing fitness (ln) (37 °C)
AAGAAGCAAUAUUACGGGCG	-1.48 ± 0.081	-0.421 ± 0.11
ACCUAGCAAUAUUACGGCGA	-1.49 ± 0.12	-0.462 ± 0.11
CCUCAGCAAUAUUACGGCGC	-3.57 ± 0.2	-2.45 ± 0.3
CCCAAGCAAUAUUACGCAAU	-4.46 ± 0.31	-1.16 ± 0.17
AUGUAGCAAUAUUACGUCUG	-1.94 ± 0.19	-2.83 ± 0.26
GAGGAGCAAUAUUACGCACU		-1.49 ± 0.36
UGAUAGCAAUAUUACGGAUC	-2.86 ± 0.22	-2.13 ± 0.3
GGAUAGCAAUAUUACGACGU	-0.152 ± 0.28	-0.257 ± 0.24
UUCCAGCAAUAUUACGUCAC	-2.79 ± 0.18	-3.15 ± 0.29
GAUGAGCAAUAUUACGUUGU		-1.69 ± 0.3
AAGCAGCAAUAUUACGUUUC	-3.3 ± 0.16	-2.27 ± 0.31
UCGGAGCAAUAUUACGACGC	-1.25 ± 0.25	-0.73 ± 0.22
UCGGAGCAAUAUUACGCCUU	-2.96 ± 0.29	-2.92 ± 0.43
AUAGAGCAAUAUUACGGCGC	-1.36 ± 0.096	-0.282 ± 0.14
UCACAGCAAUAUUACGUAUC	-4.32 ± 0.46	-2.75 ± 0.19
GGCUAGCAAUAUUACGACAG	-2.88 ± 0.35	-1.85 ± 0.34
CAAAAGCAAUAUUACGCGGA	-3.43 ± 0.25	-2.08 ± 0.17
UCGGAGCAAUAUUACGUGUU	-3.26 ± 0.24	-2.25 ± 0.26
UACUAGCAAUAUUACGGCAC	-2.77 ± 0.19	-1.73 ± 0.2
UCUGAGCAAUAUUACGGCGU	-1.82 ± 0.1	-0.983 ± 0.14
GCAUAGCAAUAUUACGGAGG	-3.03 ± 0.12	-3.37 ± 0.21
CUACAGCAAUAUUACGCACG	-0.609 ± 0.07	0.378 ± 0.08
UAGGAGCAAUAUUACGACGA	-1.21 ± 0.2	-0.888 ± 0.28
CAUGAGCAAUAUUACGUAAU	-3.04 ± 0.29	-2.73 ± 0.3
AGACAGCAAUAUUACGAGCC	-0.273 ± 0.14	-0.798 ± 0.21
GUGGAGCAAUAUUACGUAUC	-2.13 ± 0.2	-0.331 ± 0.17
